# Assay results from the domain aggregation screens of Martell et al. (2025).
# Test: soluble fraction after stress (log2 fold change); higher = more stays soluble; pooled small domains, quantitative proteomics
# Conditions: stress: pH 4
# How it was run: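 Values are on a log2 scale, where higher means more of the domain stayed soluble after pH 4 stress. They are fold changes in the soluble amount of each domain from pooled custom libraries, measured by high-throughput quantitative proteomics. The fold change is taken to reflect aggregation propensity.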
row,Sequence,soluble fraction (log2)
1,HMRKIFPFNPNFITDQRGYFLGMSTSEIDRLHHFRAANKWIQSAQEFQVVTKVSNAWLSEFSPYFNFP,0.298
2,HMRKKTYEIITDDLRRMIEAGLIRPGEKLGAIDQLAAKYRVGRSTVREALSHLKALGLVESRQGGGTYVTK,0.109
3,HMRKNVAGITPNVYGMGLKDAVYLLENAGYRVKVNGRGNVVRQSINSGTRIIKGQLIILDLD,0.0848
4,HMRKSNADALDGKTGIVKEEIKTGGYGYVGIDGDMWRSISESGEAIPAGTKVVVISHESIILTVKPA,≥ 0.43
5,HMRKTLASTAYDSIKAGIVSGEINNNLLLSENTLAKILNMSRTPIREAIKRLEAESYLKSVDGVGLIVQE,-0.314
6,HMRKTLSQEAYEKIKQNLEDGVYQGYINGRQVARDLDIGFTPVREAFLQLQSEGLIRKEDNVGYFV,-0.183
7,HMRKTYHVDAYQDDKWWVLQVQEMPNAISQVKSLDQADEWIREAINIVSNEPEDSFDVVIIPV,-1.54
8,HMRKVTDTHELSSVVKSVIDQWEEKAAEYRAGKSGLLGFFVGEVMKKTGGAADPEAAKSLLQDRLD,-0.285
9,HMRKYEAVPASVVPAQIQEYVAKSNFPNQYIRKIERNKYTWEIELSNGLEIKFDRQFNVIGFD,0.338
10,HMRLGQLQSVEEPKFIEVHSGKQGDIGEQTIVEYEIDAKYATGDATINLKLLFRDGLFEIYNFNFSSEALL,-0.259
11,HMRLNIRTKNNYSYYTIIKDYTNLNGKRTTTIFEKLGNQQQVEERFGKVNTIENIKKYIEELNNE,0.22
12,HMRLPAISYSFARKHGVVLRLDGDRPVASLREGADPAILIEVKRHLDGAMGVEKVSEAAFDQLLSTTYA,-0.436
13,HMRLPNGYGSITKLSGKRRKPFMVRITTGYDNEGKQLMSVLGYYATRTEALAVLAEYNKNPYNPI,0.109
14,HMRLPNHYGSVVKLSGKRRRPFMVRGGVYGYDDRGYPQYVIVGYTETREQGLTMLAEYNRNP,-0.319
15,HMRLPVELTDREVEVLRLLAQAMSNGEIARELYIGEATVKTHVSNVLQKLGARDRVAAVVWAHRYGL,-1.16
16,HMRLSAADLQSYLKGMDYPASRQDLIAHARGHNAPEEAVATLEQFSDRTYRSAADVSVEFGRE,0.309
17,HMRLSPTMVETLIAMLNRNAYPAYENNSRTFASLEERGLIQPDIEGNWSLTDTGHQTALKLLK,0.0279
18,HMRLSVRQRMSDVLGALKTQAFVEFTQLFRPQEGRMGVTVTFSAILELLREGLIEIVQSEPFAPIHVRAGA,0.22

row,Sequence,soluble fraction (log2)
1,HMRMDKHLWLSLLRLINEGSAEELQTKKDELLQSLERLRITRGPVRGDVLRVVRLIDEELVSRLHLDQR,-0.697
2,HMRMTKPLPFDLAAFRNEFGFTKSIIMQEVGVSRHIYDNVERTNATPPEFYDDFVSFFQRHGQ,-0.203
3,HMRMTPRQALDDLIREREETYAAVSRLLGRNTAYIQQYIKRGTPARLDQSDIAQLALHFDVPAKLLGGKE,≥ 0.43
4,HMRMTTEQLMSFLKQHFPQVADNFTVRISDEGRLSVEMPVNDKHLRPGGTVSGPSMFALADVAFYLAILQ,-0.349
5,HMRNERDRQLYAAMEKLKAEYREALYLVYFENMSYRDAAAVMAQTEKQISNLVYRGKQSLKTILEQEGF,-0.867
6,HMRNGGHTVYRNNGSLFIVVRDGDKLESVASEFRVSPKKLIKYNDLDIHSNVKTGDMIYIRPKA,-0.124
7,HMRNLYEILGVSKDAPQGEIKSAYRKLAKTYHPDLNPNNEKAAELFKEINQAYEVLSDETKRRHYDQFGEA,≥ 0.43
8,HMRNMTDYLTIVRAVYGGLSQRQAATTYHVSRNTVSLLIRHAKNQGWLTVEDLSRADAAAFSPA,-0.0738
9,HMRNMVSVLDHIEGIGPKRRQLLYEHYGELEKIKEASVEEMAGLDGMNRPAAEAVYNFFLAQRNL,-0.308
10,HMRNSSLQTDLELRAYVIDGLNHFWTPEEIAGRWSLAHPDRPVSFATIYRHIKRKLLPGIEPKTHLRRRGK,≥ 0.43
11,HMRPEARAASLSDEERKIFDYLAANGEKTIDNISVAVKMSAADILKNITLMSAKGLVYMPSAGRYGVKGN,0.0795
12,HMRPNREKDMADLEKLAPFLLQMLTNYAQMTGDEKPLNAFITRFGYAAQIRDIQDFFMGPWHPA,-0.24
13,HMRPQIAIDAIQALSLIMRTENKEDPTYLESRRVVSDAVAKRLSLNPTDLNRAWSRAPRDHQIAVLSALTQ,-0.184
14,HMRPRGTRLPTGWTPSSDALDWTKAEKPGLDPLQTLEKFRDYWTAQPGQKGVKTDWDATWRNWVRREIP,0.0989
15,HMRPSGTAGILRYLSSGAIRGIGATTAQRLVSEFGEKTLDVMENEPERVAMLKGISKSKAEDFSLQLKQS,0.0932
16,HMRPTAWEQVSRHIDQHGSIGNTEVRKAMETENVLAASKQIKKWLEQGLLIILNPTAGTRARRYSKPNM,-0.0247
17,HMRPTDVLNYDESMRILNFSNNRVGFKHLMDAKGIEQVIFKNRKIGYRKSEILALKSELEAEQK,-0.0346
